Each block holds one binder with its values, some of them ahead of it.
Columns and labels:
[1] = target: LIF acting on U251 / U-251 glioma cells (endogenous LIF) (human, UniProt P15018 23-202); experiment: cell-based or functional assay
huIL-6 (E. coli) = target: T1, huIL-6 (E. coli) (human, UniProt P05231 30-212, limits assumed); experiment: BLI (Octet), h5D8 amine-coupled to AR2G sensor, cytokine as analyte
T1 construct: also called human IL-6
Protocol: Kinetics experiments were then performed with the following Dip and Read steps at 30° C., 1000 rpm: vi) 60 seconds Baseline in 1× kinetics buffer; vii) 180 seconds Association of appropriate serial dilutions of a cytokine in 1× kinetics buffer; viii) 300 seconds Dissociation in 1× kinetics buffer; ix) Three Regeneration/Neutralization cycles alternating between 10 mM glycine pH 2.0 and 1× kinetics buffer respectively (5 seconds in each for 3 cycles). Following regeneration, the biosensors were reused for subsequent binding analyses.

recombinant human LIFR = target: T2, recombinant human LIFR (human, UniProt P42702 45-833, limits assumed); experiment: BLI (Octet RED96), control experiment, h5D8 on anti-human Fc sensor
T2 construct: also called hLIFR; LIF receptor
T2 sequence (looked up): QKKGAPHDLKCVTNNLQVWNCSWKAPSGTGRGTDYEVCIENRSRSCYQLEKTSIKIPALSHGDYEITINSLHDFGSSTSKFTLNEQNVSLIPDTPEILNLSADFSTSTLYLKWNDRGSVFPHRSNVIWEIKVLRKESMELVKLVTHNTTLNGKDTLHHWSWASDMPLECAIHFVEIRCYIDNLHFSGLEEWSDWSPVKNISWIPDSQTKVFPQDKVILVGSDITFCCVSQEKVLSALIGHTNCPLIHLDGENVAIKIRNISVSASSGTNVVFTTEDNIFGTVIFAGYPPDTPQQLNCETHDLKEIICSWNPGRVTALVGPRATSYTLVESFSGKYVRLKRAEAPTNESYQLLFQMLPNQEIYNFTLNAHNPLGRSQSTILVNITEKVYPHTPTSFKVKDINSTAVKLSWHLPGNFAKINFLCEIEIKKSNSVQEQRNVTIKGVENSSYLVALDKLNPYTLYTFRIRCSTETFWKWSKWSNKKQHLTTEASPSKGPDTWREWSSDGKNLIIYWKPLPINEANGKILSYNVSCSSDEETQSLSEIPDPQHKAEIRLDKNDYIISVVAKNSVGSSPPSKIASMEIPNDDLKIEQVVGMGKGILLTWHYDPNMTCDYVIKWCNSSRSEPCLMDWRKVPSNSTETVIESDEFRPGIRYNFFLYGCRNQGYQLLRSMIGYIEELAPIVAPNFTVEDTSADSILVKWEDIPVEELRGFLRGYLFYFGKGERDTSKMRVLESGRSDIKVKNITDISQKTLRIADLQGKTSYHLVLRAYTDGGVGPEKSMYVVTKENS

recombinant human gp130 = target: T3, recombinant human gp130 (human, UniProt P40189 23-619, limits assumed); experiment: ELISA of mAb/LIF complexes on immobilized gp130, read through the antibody part (B09, anti-rat IgG-peroxidase)
T3 sequence (looked up): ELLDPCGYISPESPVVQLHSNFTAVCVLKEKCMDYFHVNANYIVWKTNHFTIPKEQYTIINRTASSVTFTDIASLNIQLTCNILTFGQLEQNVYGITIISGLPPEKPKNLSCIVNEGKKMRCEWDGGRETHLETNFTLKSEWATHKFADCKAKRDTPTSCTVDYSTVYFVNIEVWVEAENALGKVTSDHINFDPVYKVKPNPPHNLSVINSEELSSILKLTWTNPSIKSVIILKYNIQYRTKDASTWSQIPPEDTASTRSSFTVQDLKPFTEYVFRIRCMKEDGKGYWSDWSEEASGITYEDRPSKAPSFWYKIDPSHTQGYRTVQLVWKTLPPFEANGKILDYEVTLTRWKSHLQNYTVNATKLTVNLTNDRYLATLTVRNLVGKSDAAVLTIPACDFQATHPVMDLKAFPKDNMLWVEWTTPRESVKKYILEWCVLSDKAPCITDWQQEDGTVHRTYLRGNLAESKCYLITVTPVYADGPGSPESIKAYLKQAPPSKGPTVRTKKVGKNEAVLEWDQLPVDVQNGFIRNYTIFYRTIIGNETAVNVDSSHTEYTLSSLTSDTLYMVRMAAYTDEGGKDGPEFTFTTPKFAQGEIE

T1 sequence (P05231 30-212 limits assumed): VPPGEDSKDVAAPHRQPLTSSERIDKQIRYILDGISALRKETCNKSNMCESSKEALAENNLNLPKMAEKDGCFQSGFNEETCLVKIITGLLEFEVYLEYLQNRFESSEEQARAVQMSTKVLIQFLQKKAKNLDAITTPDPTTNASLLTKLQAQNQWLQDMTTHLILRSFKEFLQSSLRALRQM
Sequence of LIF acting on U251 / U-251 glioma cells (endogenous LIF) (P15018 23-202 limits assumed): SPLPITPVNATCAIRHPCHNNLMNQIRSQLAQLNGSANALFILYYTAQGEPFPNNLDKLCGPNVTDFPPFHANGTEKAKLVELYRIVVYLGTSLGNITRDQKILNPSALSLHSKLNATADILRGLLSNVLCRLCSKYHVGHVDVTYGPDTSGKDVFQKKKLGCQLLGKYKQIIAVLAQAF

- IC50 for biological inhibition (pSTAT3), serum starved U-251 cells [1]: 490 picomolar
- binding result (huIL-6 (E. coli)): no binding
- binding result (recombinant human LIFR): no binding
B1: h5D8 (humanized 5D8 comprising H2 and L2) (antibody, human IgG1, kappa, V domains shown)
VH: QVQLQESGGGLVKPGGSLRLSCAASGFTFSHAWMHWVRQAPGKGLEWVGQIKAKSDDYATYYAESVKGRFTISRDDSKNTLYLQMNSLKTEDTAVYYCTCWEWDLDFWGQGTMVTVSS
VL: DIVMTQTPLSSPVTLGQPASISCRSSQSLLDSDGHTYLNWLQQRPGQPPRLLIYSVSNLESGVPDRFSGSGAGTDFTLKISRVEAEDVGVYYCMQATHAPPYTFGQGTKLEIKR
notes: also called H2L2; G (H2L2)

- binding result (recombinant human gp130): binds
B2: human LIF (source not stated) (ligand)
chain: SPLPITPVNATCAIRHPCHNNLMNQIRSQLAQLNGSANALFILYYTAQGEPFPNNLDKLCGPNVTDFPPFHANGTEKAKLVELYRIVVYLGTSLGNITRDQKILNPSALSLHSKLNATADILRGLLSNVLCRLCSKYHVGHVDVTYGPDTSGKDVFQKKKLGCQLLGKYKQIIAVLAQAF
notes: also called hLIF; recombinant human LIF protein

Source: patent publication US20230042095A1 (AstraZeneca / MedImmune, published 2023)
